Usually koff stands for a measure of how fast the partners let go of each other.

The results in this text go back to article PMC8648943.

Assay [1] addresses Pf3 coat protein with single cysteine 47C, tethered by its C-terminal end to the AFM tip through a PEG27-linker (phage Pf3) (UniProt P03623). The assay is described as follows: dynamic single-molecule force spectroscopy (DFS) by AFM; Pf3 tethered through PEG27 to the AFM tip, YidC in supported POPE:POPG membranes; contact time 2 ms; pulling velocities 1–25 µm s^–1; Bell-Evans fit, k0 = zero-force transition rate of the bond; room temperature.

Assay [2] shares this target. The assay is described as follows: FD-AFM-based single-molecule force spectroscopy; Pf3 tethered through PEG27 to the AFM tip, YidC in supported POPE:POPG membranes on mica; contact time ≈2 ms; pulling velocity 3–4.5 µm s^–1; room temperature; 150 mM KCl, 20 mM HEPES, pH 7.4.
Assay [3] shares this target. The assay is described as follows: FD-AFM-based single-molecule force spectroscopy; as a2, contact time 52 ms.
Assay [4] shares this target. Kind of assay: dynamic single-molecule force spectroscopy (DFS) by AFM; as a5, contact time 52 ms.
Assay [5] shares this target. The assay is described as follows: FD-AFM-based single-molecule force spectroscopy; as a2, contact time 502 ms.
For assay [6] the target is unchanged. The assay is described as follows: AFM-based single-molecule force spectroscopy (height clamp mode); Pf3 tethered by its C-terminal end through a PEG27-linker to the AFM tip, held ≈5–10 nm above a supported POPE:POPG membrane with YidC for ≈1–2 s; force-time curves; lifetimes fitted with the Bell model; room temperature; 150 mM KCl, 20 mM HEPES, pH 7.4.
Assay [7] concerns the target Pf3-47C labelled with Atto520 (phage Pf3) (UniProt P03623). Kind of assay: FRET or BRET; single-molecule FRET on a confocal FCS setup; proteoliposomes with 1 nM YidC S405C-Atto647N (acceptor) mixed with 1 nM Atto520-labelled Pf3-47C (donor); 300 mM NaCl, 20 mM Tris-HCl, pH 7.5; recorded for 360 s.

Molecule “ΔCH2 YidC mutant (residues 399–415 deleted) (from UniProt P25714 1-548)” registered an off-rate (koff) in assay [1] of 0.07 s⁻¹.

On to “ΔCH2 YidC mutant (residues 399–415 deleted) (from UniProt P25714 1-548) (enzyme)”, for which the mean (un-)binding force in assay [2] was found to be 35.4 pN. In assay [3], the fraction of (un-)binding forces >50 pN worked out at 22.2% and the mean (un-)binding force is 41 pN.

For “wild-type (wt) YidC insertase from E. coli (from UniProt P25714 1-548)”, the koff in assay [4] came out at 2 s⁻¹.

As to “wild-type (wt) YidC insertase from E. coli (from UniProt P25714 1-548) (enzyme)”, the mean (un-)binding force in assay [5] was found to be 50.8 pN; in assay [2] it was 29.5 pN; in assay [3] it was 47.6 pN. This molecule also came in with a bond lifetime at zero force (t0, Bell model) in assay [6] of 0.32 s. This molecule returned a fraction of force-time curves with interaction events in assay [6] of 2 to 4%. In addition, the off-rate constant (koff) in assay [6] is 3.1 s⁻¹; in assay [1] it was 0.03 s⁻¹. Moreover, the lifetime of the bond (reciprocal of k0) in assay [4] is 0.5 s; in assay [1], 33 s. For the same molecule, in assay [3], the fraction of (un-)binding forces >50 pN stood at 48.7%.

As to “R366E YidC mutant (from UniProt P25714 1-548) (enzyme)”, the koff in assay [1] was 0.03 s⁻¹. Besides, in assay [2], the mean (un-)binding force was 29.1 pN. For the same molecule, in assay [3], the fraction of (un-)binding forces >50 pN worked out at 10.5% and the mean (un-)binding force is 31.5 pN.

B1: R366E YidC S405C labelled with Atto647N (enzyme)
chain: MDSQRNLLVIALLFVSFMIWQAWEQDKNPQPQAQQTTQTTTTAAGSAADQGVPASGQGKLISVKTDVLDLTINTRGGDVEQALLPAYPKELNSTQPFQLLETSPQFIYQAQSGLTGRDGPDNPANGPRPLYNVEKDAYVLAEGQNELQVPMTYTDAAGNTFTKTFVLKRGDYAVNVNYNVQNAGEKPLEISSFGQLKQSITLPPHLDTGSSNFALHTFRGAAYSTPDEKYEKYKFDTIADNENLNISSKGGWVAMLQQYFATAWIPHNDGTNNFYTANLGNGIAAIGYKSQPVLVQPGQTGAMNSTLWVGPEIQDKMAAVAPHLDLTVDYGWLWFISQPLFKLLKWIHSFVGNWGFSIIIITFIVEGIMYPLTKAQYTSMAKMRMLQPKIQAMRERLGDDKQRICQEMMALYKAEKVNPLGGSFPLLIQMPIFLALYYMLMGSVELRQAPFALWIHDLSAQDPYYILPILMGVTMFFIQKMSPTTVTDPMQQKIMTFMPVIFTVFFLWFPSGLVLYYIVSNLVTIIQQQLIYRGLEKRGLHSREKKKS
modifications: Atto647N (acceptor) on cysteine S405C in the cytoplasmic α-helical hairpin
In assay [7], B1 returned an FRET events relative to wt YidC within 360 s of 25%.
